Groups on a side chain read outwards from the residue. No end group written: not given here. maleimide = maleimide group on the activated BSA carrier, coupling the C-terminal Cys
Assays:
[1] = target: T1, NME7-AB (recombinant human NME7 comprising essentially the NDPK A and B domains, expressed in E. coli) (human, UniProt Q9Y5B8 92-376); assay: ELISA, carrier-coupled PSMGFR-Cys on plate
T1 construct: Monomeric; purified over NTA-Ni and by size exclusion; the purification described uses Ni-NTA; also called recombinant NME7; NME7 (NME7-AB construct); not shown: a Strep Tag II version was al
T1 sequence: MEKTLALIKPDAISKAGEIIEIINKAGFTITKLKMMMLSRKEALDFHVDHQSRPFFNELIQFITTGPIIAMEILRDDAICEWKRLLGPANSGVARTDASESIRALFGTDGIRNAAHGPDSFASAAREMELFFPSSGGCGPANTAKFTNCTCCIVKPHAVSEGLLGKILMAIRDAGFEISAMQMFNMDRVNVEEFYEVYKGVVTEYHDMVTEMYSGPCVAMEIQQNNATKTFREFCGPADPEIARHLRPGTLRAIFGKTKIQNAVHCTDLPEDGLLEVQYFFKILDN
Protocol: (§1) The PSMGFR peptide bearing a C-terminal Cysteine (PSMGFR-Cys) was covalently coupled to BSA using Inject Maleimide activated BSA kit (Thermo Fisher). PSMGFR-Cys coupled BSA was diluted to 10 ug/mL in 0.1M carbonate/bicarbonate buffer pH 9.6 and 50 uL was added to each well of a 96 well plate. After overnight incubation at 4° C., the plate was wash twice with PBS-T and a 3% BSA solution was added to block remaining binding site on the well. After 1 h at RT the plate was washed twice with PBS-T and NME7, diluted in PBS-T+1% BSA, was added at different concentrations. After 1 h at RT the plate was washed 3× with PBS-T and anti-NM23-H7 (B-9, Santa Cruz Biotechnology), diluted in PBS-T+1% BSA, was added at 1/500 dilution. After 1 h at RT the plate was washed 3× with PBS-T and goat anti mouse-HRP, diluted in PBS-T+1% BSA, was added at 1/3333 dilution. After 1 h at RT the plate was washed 3× with PBS-T and binding of NME7 was measured at 415 nm using a ABTS solution (Pierce).

[2] = target: T1, NME7-AB (recombinant human NME7 …); assay: gold nanoparticle aggregation assay
Protocol: Gold nanoparticles of a diameter of 30.0 nm were coated with an NTA-SAM surface according to Thompson et al. (ACS Appl. Mater. Interfaces, 2011, 3 (8), pp 2979-2987). The NTA-SAM coated gold nanoparticles were then activated with an equal volume of 180 uM NiSO₄, incubated for 10 min at room temperature, washed, and resuspended in a 10 mM phosphate buffer (pH 7.4). The gold nanoparticles were then loaded with PSMGFR N-10 peptide ([…]-HHHHHH (SEQ ID NO:112)) at 0.5 uM final concentration, and incubated at room temperature for 10 min Recombinant NME7-AB protein expressed and purified from E. coli was added free in solution at the concentrations indicated. When particle-immobilized proteins bind to each other, or simultaneously bind to two different peptides on two different particles, the particle solution color changes from pink/red to purple/blue. If the protein added free in solution causes particle aggregation, it is strong evidence that the free protein dimerizes the cognate peptide, since binding to a single peptide would not induce two or more particles to be brought into close proximity to each other.
The NME7-AB is added free in solution at the concentrations indicated. Solution color change from pink to purple/blue from particle aggregation indicates binding between the MUC* peptide on the particles and NME7 free in solution. […]

[3] = target: T1, NME7-AB (recombinant human NME7 …); assay: sandwich ELISA, NME7-AB held on plate-bound PSMGFR, detection with streptavidin
Protocol: as §1, with “After 1 h at RT the plate was washed 3× with PBS-T and goat anti mouse-HRP, diluted in PBS-T+1% BSA, was added at 1/3333 dilution.” left out, “(Pierce). […]” for “(Pierce).”
(§2) After 1 h at RT the plate was washed 3× with PBS-T and HisTagged PSMGFR peptide (PSMGFR-His) or biotinylated PSMGFR peptide (PSMGFR-biotin), diluted in PBS-T+1% BSA, was added at different concentration. […] After 1 h at RT the plate was washed 3× with PBS-T and binding of PSMGFR peptide to NME7 already bound to another PSMGFR peptide (which could not signal by anti-His antibody or by streptavidin) coupled BSA was measured at 415 nm using a ABTS solution (Pierce).

[4] = target: T1, NME7-AB (recombinant human NME7 …); assay: sandwich ELISA, NME7-AB held on plate-bound PSMGFR, detection with HRP labeled anti-His-tag antibody
Protocol: as §1, with “After 1 h at RT the plate was washed 3× with PBS-T and goat anti mouse-HRP, diluted in PBS-T+1% BSA, was added at 1/3333 dilution.” left out, “(Pierce). […]” for “(Pierce).”
as §2

B1: PSMGFR peptide bearing a C-terminal Cysteine (PSMGFR-Cys) coupled to BSA (peptide)
peptide: GTINVHDVETQFNQYKTEAASRYNLTISDVSVSDVPFPFSAQSGAC([maleimide-BSA])
modifications: not fully specified
notes: Coated on the ELISA plate; also called PSMGFR-Cys coupled BSA; first MUC1* peptide of the sandwich ELISA
B1: binds [1].

B2: PSMGFR N-10 peptide (His-tagged) (peptide)
peptide: QFNQYKTEAASRYNLTISDVSVSDVPFPFSAQSGAHHHHHH
notes: loaded on NTA-Ni-SAM coated gold nanoparticles; also called N-10 PSMGFR peptide; MUC1* peptide on NTA-Ni-SAM nanoparticles
B2: binds [2].

B3: biotinylated PSMGFR peptide (PSMGFR-biotin) (peptide)
peptide: GTINVHDVETQFNQYKTEAASRYNLTISDVSVSDVPFPFSAQSGA
modifications: also: biotinylated (position not given here)
notes: also called second MUC1* peptide with biotin
B3: binds [3].

B4: histidine-tagged MUC1* extra cellular domain peptide (His-tagged PSMGFR sequence) (peptide)
peptide: GTINVHDVETQFNQYKTEAASRYNLTISDVSVSDVPFPFSAQSGAHHHHHH
notes: also called PSMGFR-His; HisTagged PSMGFR peptide
B4: binds [4].

Source: patent US20230287338A1 (MINERVA BIOTECHNOLOGIES, published 2023)
